Earlier results, collected in publication PMC4041429.

Target: β clamp (Escherichia coli) (UniProt P0A988)

β clamp (from UniProt P0A988)
Kd: < 0.05 µM
